Experimental findings from article PMC7812809 (Proceedings of the National Academy of Sciences of the …, 2020) are described below.

Where a chain is given by its changes, count along the chain named. Names and notes keep the numbering of the source.

What all share (assay): negative stain EM
For series [1], the target named is Dendra2 T69A-LdcI (N-terminal fluorescent protein fusion of LdcI) (not stated | E. coli) (UniProt P0A9H3).
Series [2] has as its target LdcI E445A/D447A/R468E triple mutant (E. coli) (UniProt P0A9H3).
In series [3] the target is LdcI R97E/R468E double mutant (E. coli) (UniProt P0A9H3).
For series [4], the target named is LdcI-Dendra2 T69A (C-terminal fluorescent protein fusion of LdcI) (E. coli | not stated) (UniProt P0A9H3).
Series [5] has as its target LdcI-mGeosM (C-terminal fluorescent protein fusion of LdcI) (E. coli | not stated) (UniProt P0A9H3).
The series “negative stain EM” concerns the molecule itself.

“Dendra2 T69A-LdcI (N-terminal fluorescent protein fusion of LdcI) (from UniProt P0A9H3 1-715) (enzyme)” gave a stoichiometry N in series [1] of 2. “LdcI E445A/D447A/R468E triple mutant (from UniProt P0A9H3 1-715) (enzyme)”: in series [2], the stoichiometry N is 10. Turning to “LdcI R97E/R468E double mutant (from UniProt P0A9H3 1-715) (enzyme)”, in series [3], the stoichiometry N was 10. “LdcI-Dendra2 T69A (C-terminal fluorescent protein fusion of LdcI) (from UniProt P0A9H3 1-715) (enzyme)” showed a stoichiometry N in series [4] of 10.

In series [5], “LdcI-mGeosM (C-terminal fluorescent protein fusion of LdcI) (from UniProt P0A9H3 1-715) (enzyme)” returned a stoichiometry N of 10.

B1: LdcI E445A/D447A double mutant (enzyme, E. coli)
chain: MNVIAILNHMGVYFKEEPIRELHRALERLNFQIVYPNDRDDLLKLIENNARLCGVIFDWDKYNLELCEEISKMNENLPLYAFANTYSTLDVSLNDLRLQISFFEYALGAAEDIANKIKQTTDEYINTILPPLTKALFKYVREGKYTFCTPGHMGGTAFQKSPVGSLFYDFFGPNTMKSDISISVSELGSLLDHSGPHKEAEQYIARVFNADRSYMVTNGTSTANKIVGMYSAPAGSTILIDRNCHKSLTHLMMMSDVTPIYFRPTRNAYGILGGIPQSEFQHATIAKRVKETPNATWPVHAVITNSTYDGLLYNTDFIKKTLDVKSIHFDSAWVPYTNFSPIYEGKCGMSGGRVEGKVIYETQSTHKLLAAFSQASMIHVKGDVNEETFNEAYMMHTTTSPHYGIVASTETAAAMMKGNAGKRLINGSIERAIKFRKEIKRLRTASAGWFFDVWQPDHIDTTECWPLRSDSTWHGFKNIDNEHMYLDPIKVTLLTPGMEKDGTMSDFGIPASIVAKYLDEHGIVVEKTGPYNLLFLFSIGIDKTKALSLLRALTDFKRAFDLNLRVKNMLPSLYREDPEFYENMRIQELAQNIHKLIVHHNLPDLMYRAFEVLPTMVMTPYAAFQKELHGMTEEVYLDEMVGRINANMILPYPPGVPLVMPGEMITEESRPVLEFLQMLCEIGAHYPGFETDIHGAYRQADGRYTVKVLKEESKK
Regarding B1, the binding result in “negative stain EM” is given as “binds”.

B2: LdcI H694N (enzyme, E. coli)
chain: B1 chain with A445E, A447D, H694N
For the molecule B2, the binding result in “negative stain EM” is listed as “binds”.

B3: LdcI R97E (enzyme, E. coli)
chain: B1 chain with R97E, A445E, A447D
With B3, the binding result in the series “negative stain EM” was “binds”.

B4: LdcI H694A (enzyme, E. coli)
chain: B1 chain with A445E, A447D, H694A
Regarding B4, the binding result in “negative stain EM” is reported as “binds”.
